Experimental data as given in patent US20220073565A1 (University of Washington, published 2022).
No end group written: not given here.

Tests used:
[1] = molecular target: T1, Bcl2 (UniProt P10415 1-207, limits assumed, biotinylated); experiment: bio-layer interferometry, Bcl2 immobilised, 250 nM BimLOCKR with and without key
T1 construct: Loaded on streptavidin biosensors; also called biotinylated Bcl2
Method: The range of key concentrations over which BimLOCKR is activated can be controlled by tuning KCK by varying the length of the key since the interaction energy is roughly proportional to the total surface area of interacting residues. […] Truncating an additional five residues completely negates key activation, indicating the equilibria are very sensitive to small changes in free energy as expected from our model (FIG. 2d). […] Bio-layer interferometry experiments were performed with target immobilized assayed against the switch with or without key in solution, as well as with key immobilized and assayed against the switch alone or with target in solution. […] This fit has an RMSE (root-mean-square-error) of 0.072 nm to the observed BLI data.
BLI measurements were made on an Octet® RED96 System (ForteBio) with streptavidin (SA) coated biosensors and all analysis was performed within ForteBio Data Analysis Software version 9.0.0.10. Assays were performed with protein diluted into HBS-EP+ Buffer from GE (10 mM HEPES, 150 mM NaCl, 3 mM EDTA, 0.05% v/v Surfactant P20, 0.5% non-fat dry milk, pH7.4 at room temperature). Biotinylated Bcl2 was loaded onto the SA tips to a threshold of 0.5 nm programmed into the machine's protocol.

[2] = molecular target: T1, Bcl2; experiment: global fit of the thermodynamic model to bio-layer interferometry data (target or key immobilised)
[3] = molecular target: T2, BclB (UniProt Q9HD36 11-178, limits assumed); experiment: as above
T2 construct: also called Bcl2 homolog BclB
T2 sequence (looked up): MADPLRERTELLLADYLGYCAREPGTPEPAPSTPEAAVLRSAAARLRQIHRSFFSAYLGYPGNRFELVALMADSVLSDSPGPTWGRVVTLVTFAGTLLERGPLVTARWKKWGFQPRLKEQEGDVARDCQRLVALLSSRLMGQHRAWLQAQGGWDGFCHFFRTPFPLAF

[4] = molecular target: T1, Bcl2; experiment: bio-layer interferometry (Octet), Bcl2 immobilised, switch with nine residue toehold
[5] = molecular target: T3, mSin3A-PAH2 domain (UniProt Q60520 300-383, biotin); experiment: bio-layer interferometry, Biotin-mSin3A-PAH2 on streptavidin tips
T3 construct: domain: PAH2; 0.1 µg immobilised on streptavidin biosensor tips; also called Biotin-mSin3A-PAH2; PAH2 domain of the mSin3A transcriptional repressor
T3 sequence (looked up): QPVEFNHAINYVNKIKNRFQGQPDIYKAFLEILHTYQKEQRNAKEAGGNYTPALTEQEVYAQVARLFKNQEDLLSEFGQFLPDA
Text: FIG. 12a-d: Designed Mad1-SID LOCKR switches for key-dependent transcriptional repression. FIG. 12a. Crystal structure of the interaction between Mad1-SID domain (white) and the PAH2 domain of the mSin3A transcriptional repressor (black) (PDB ID: 1E91). Caging of the Mad1-SID domain should enable key-dependent recruitment of the transcriptional repressor mSin3A enabling precise epigenetic regulation. FIG. 12b. Designed Mad1-LOCKR switches, with Cage component encoding the Mad1-SID sequence at different positions (dark gray). FIG. 12c. SDS-PAGE gel showing successfully purified 1fix302Mad1 (1) , 1fix_309_Mad1 (2) and MBP_Mad1 (3). FIG. 12d. Biolayer interferometry analysis of key-activated binding of the Mad1-LOCKR switches to the purified rnSin3A-PAH2 domain. MBP-Mad1 is a positive control for mSin3a-PAH2 binding. […] Kinetic assays were performed by immobilizing 0.1μg of Biotin-mSin3A-PAH2 protein on Streptavidin biosensor tips (ForteBio). Protein cages were tested at 50 nM in presence or absence of 500 nM Keyₐ.

[6] = molecular target: T4, YFP-degronSwitcha; experiment: cell-based or functional assay
T4 sequence: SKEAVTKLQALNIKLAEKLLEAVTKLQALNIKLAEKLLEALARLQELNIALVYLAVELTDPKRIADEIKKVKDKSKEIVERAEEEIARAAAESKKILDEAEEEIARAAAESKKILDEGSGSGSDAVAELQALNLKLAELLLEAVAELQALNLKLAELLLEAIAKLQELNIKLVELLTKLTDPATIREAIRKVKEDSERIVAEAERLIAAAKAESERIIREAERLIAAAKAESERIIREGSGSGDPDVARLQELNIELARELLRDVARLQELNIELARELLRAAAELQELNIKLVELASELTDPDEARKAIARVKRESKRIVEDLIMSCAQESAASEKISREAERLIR

[7] = molecular target: dCas9-VP64-RFP-degronSwitcha; experiment: cell-based or functional assay
[8] = molecular target: SynTF-RFP-degronSwitcha; experiment: cell-based or functional assay

T1 sequence (P10415 1-207 limits assumed): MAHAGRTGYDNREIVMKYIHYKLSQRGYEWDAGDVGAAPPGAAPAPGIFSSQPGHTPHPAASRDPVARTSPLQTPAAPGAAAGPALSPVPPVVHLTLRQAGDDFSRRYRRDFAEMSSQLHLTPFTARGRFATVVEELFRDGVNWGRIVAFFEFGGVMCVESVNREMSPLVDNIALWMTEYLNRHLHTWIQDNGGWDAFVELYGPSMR

B1: BimLOCKR (18-residue extension with a 9 residue toehold) (designed binder)
chain: MGSSHHHHHHSSGLVPRGSHMSKEAVTKLQALNIKLAEKLLEAVTKLQALNIKLAEKLLEALARLQELNIALVYLAVELTDPKRIADEIKKVKDKSKEIVERAEEEIARAAAESKKILDEAEEEIARAAAESKKILDEGSGSGSDAVAELQALNLKLAELLLEAVAELQALNLKLAELLLEAIAKLQELNIKLVELLTKLTDPATIREAIRKVKEDSERIVAEAERLIAAAKAESERIIREAERLIAAAKAESERIIREGSGSGDPDVARLQELNIELARELLRDVARLQELNIELARELLRAAAELQELNIKLVELASELTDEIWIAQELRRIGDEFNAYYADAERLIREAAAASEKISREAERLIREAA
notes: the tested form has the latch truncated by nine residues at the C-terminus (toehold); also called BimLOCKRa
B1 was tested, and the “fold activation of binding by the key (with key against without key)” value [1] was roughly 40 fold, the Kd [2] was 28 nM and the Kd [3] was 32 nM.

B2: BimLOCKRb (nine residue toehold on the latch) (designed binder)
chain: MGSSHHHHHHSSGLVPRGSHMSHAAVIKLSDLNIRLLDKLLQAVIKLTELNAELNRKLIEALQRLFDLNVALVHLAAELTDPKRIADEIKKVKDKSKEIVERAEEEIARAAAESKKILDEAEEEIARAAAESKKILDEGSGSGSDAVAELQALNLKLAELLLEAVAELQALNLKLAELLLEAIAKLQELNIKLVELLTKLTDPATIREAIRKVKEDSERIVAEAERLIAAAKAESERIIREAERLIAAAKAESERIIREGSGSNDPQVAQNQETFIELARDALRLVAENQEAFIEVARLTLRAAALAQEVAIKAVEAASEGGSGSGNEIWIAQELRRIGDEFNAYYAEHKEIHDKLRKKNKKAREDLKKKADE
notes: Entry is printed with full latch and optional His tag; tested with a nine residue toehold (latch truncated by nine residues)
With B2 the “fold activation of binding by the cognate key (with key against without key)” value [4] was 22 fold.

B3: 1fix_302_Mad1 (designed binder)
chain: MGSHHHHHHGSGSENLYFQGSKEAAKKLQDLNIELARKLLEASTKLQRLNIRLAEALLEAIARLQELNLELVYLAVELTDPKRIRDEIKEVKDKSKEIIRRAEKEIDDAAKESKKILEEARKAIRDAAEESRKILEEGSGSGSDALDELQKLNLELAKLLLKAIAETQDLNLRAAKAFLEAAAKLQELNIRAVELLVKLTDPATIRRALEHAKRRSKEIIDEAERAIRAAKRESERIIEEARRLIEKAKEESERIIREGSGSGDPDIKKLQDLNIELARELLRAHAQLQRLNLELLRELLRALAQLQELNLDLLRLASELTNIQMLLEAADYLERESKRIVEDAERLIREAAAASEKISREAERSIREAAAASEKISRE
notes: Optional His-TEV tag printed in parentheses
B3: no binding [5].

B4: Keya-BFP (designed binder, not shown: large carriers)
chain: EARKAIARVKRESKRIVEDAERLIREAAAASEKISREAERLIREAAAASEKISRE
modifications: also: C-terminal fusion to BFP (mTagBFP2), linker not given here
In the case of B4, the reduction of YFP fluorescence (flow cytometry, S. cerevisiae) [6] is reported as less than 73%, the reduction of RFP fluorescence upon induction of Key at 31.25 nM E2 [7] is reported as 78% and the reduction of pTet7x-YFP reporter fluorescence upon induction of Key at 31.25 nM E2 [7] is reported as 41%.

B5: Keya-BFP-NLS (designed binder, not shown: large carriers)
chain: EARKAIARVKRESKRIVEDAERLIREAAAASEKISREAERLIREAAAASEKISRE
Binder B5 has a reduction of RFP fluorescence at 31.25 nM E2, maximal Key induction [8] of 61% and a reduction of pSynTF-YFP reporter fluorescence at 31.25 nM E2, maximal Key induction [8] of 82%.

B6: BimLOCKRc (nine residue toehold on the latch) (designed binder)
chain: MGSSHHHHHHSSGLVPRGSHMSLEAVLKLAELNLKLSDKLAEAVQKLAALLNKLLEKLSEALQRLFELNVALVTLAIELTDPKRIADEIKKVKDKSKEIVERAEEEIARAAAESKKILDEAEEEIARAAAESKKILDEGSGSGSDAVAELQALNLKLAELLLEAVAELQALNLKLAELLLEAIAKLQELNIKLVELLTKLTDPATIREAIRKVKEDSERIVAEAERLIAAAKAESERIIREAERLIAAAKAESERIIREGSGSNDPLVARLQELLIEHARELLRLVATSQEIFIELARAFLANAAQLQEAAIKAVEAASENGSGEIWIAQELRRIGDEFNAYYAQNQKLLKDHKRAQEKLNRELEELKKKHKK
notes: as for B2
B6 was tested, and the “fold activation of binding by the cognate key (with key against without key)” value [4] was 8 fold.
